The values that follow are results of earlier work, collected in article PMC11548882.

A word on the Kd: it is the free concentration of one partner at which half of the binding sites on the other are occupied at equilibrium, for simple one-to-one binding.

The target of this data set is EGFR (Homo sapiens) (UniProt P00533).

For the substance EGF (from UniProt P01133), the Kd is 4 nM.
